Reference: the supplement of paper PMC7877785
± gives the uncertainty stated by the source.

Test: self-splicing fitness, log relative to wild type (ln ratio); higher = more splicing; Tetrahymena group I intron in knt gene, E. coli kanamycin selection, DiMSum; sequences stand for … in CUCUCU…GGAGGGAAAAGUUAUCAGGCAUGCACCUGGUAGCUAGUCUUUAAACCAAUAGAUUGCAUCGGUUUAAAAGGCAAGACCGUCAAAUUGCGGGAAAGGGGUCAACAGCCGUUCAGUACCAAGUCUCAGGGGAAACUUUGAGAUGGCCUUGCAAAGGGUAUGGUAAUAAGCUGACGGACAUGGUCCUAACCACGCAGCCAAGUCCUAAGUCAACAGAUCUUCUGUUGAUAUGGAUGCAGUUCACAGACUAAAUGUCGGUCGGGGAAGAUGUAUUCUUCUCAUAAGAUAUAGUCGGACCUCUCCUUAAUGGGAGCUAGCGGAUGAAGUGAUGCAACACUGGAGCCGCUGGGAACUAAUUUGUAUGCGAAAGUAUAUUGAUUAGUUUUGGAGUACUCGUGGUCG
Summary of the method: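 Fitness was computed with DiMSum as the error-weighted combination of replicate fold changes, kanamycin versus none, each normalised to wild type. The library randomised all eight intron nucleotides of the P1ex region, with the intron placed in the knt kanamycin-resistance gene on pET-22b(+) in E. coli BL21(DE3). Six replicate transformations were grown overnight at 37°C or 30°C on LB agar with or without 25 μg/mL kanamycin, plus 100 μg/mL carbenicillin, 50 μM IPTG and 0.2% rhamnose. Pooled colonies were amplicon-sequenced on an Illumina HiSeq 2500.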

| Sequence | self-splicing fitness (ln) (30 °C) | self-splicing fitness (ln) (37 °C) |
| --- | --- | --- |
| GCCGAGCAAUAUUACGAAGG | -3.25 ± 0.24 | -2.12 ± 0.49 |
| GCCGAGCAAUAUUACGAAUC | -1.68 ± 0.11 | -0.92 ± 0.12 |
| GCCGAGCAAUAUUACGACAA | -3.38 ± 0.34 | -2.05 ± 0.24 |
| GCCGAGCAAUAUUACGAGAG | -3.14 ± 0.3 | -0.44 ± 0.19 |
| GCCGAGCAAUAUUACGAGCC | -3.06 ± 0.14 | -2.3 ± 0.24 |
| GCCGAGCAAUAUUACGCACG | -3.74 ± 0.35 | -1.49 ± 0.36 |
| GCCGAGCAAUAUUACGCAUA | -3.39 ± 0.22 | -1.41 ± 0.16 |
| GCCGAGCAAUAUUACGCCUA | -2.44 ± 0.2 | -1.58 ± 0.16 |
| GCCGAGCAAUAUUACGCGGC | – | -2.33 ± 0.36 |
| GCCGAGCAAUAUUACGCUGC | -4.22 ± 0.36 | -2.81 ± 0.25 |
| GCCGAGCAAUAUUACGGAAG | -2.65 ± 0.23 | -0.897 ± 0.15 |
| GCCGAGCAAUAUUACGGCGG | -2.62 ± 0.21 | -1.91 ± 0.3 |
| GCCGAGCAAUAUUACGGGCC | -3.59 ± 0.32 | -1.99 ± 0.41 |
| GCCGAGCAAUAUUACGGUGA | -1.49 ± 0.088 | -0.176 ± 0.095 |
| GCCGAGCAAUAUUACGGUUC | -4.42 ± 0.3 | -1.79 ± 0.26 |
| GCCGAGCAAUAUUACGUACA | -2.85 ± 0.18 | -1.85 ± 0.17 |
| GCCGAGCAAUAUUACGUAGU | -1.34 ± 0.14 | -0.503 ± 0.16 |
| GCCGAGCAAUAUUACGUCUU | -2.71 ± 0.16 | -1.82 ± 0.14 |
| GCCGAGCAAUAUUACGUUCA | -1.03 ± 0.11 | -0.854 ± 0.14 |
| GCCUAGCAAUAUUACGAACU | -1.67 ± 0.23 | -0.772 ± 0.23 |
| GCCUAGCAAUAUUACGAGGG | -3.68 ± 0.21 | -1.6 ± 0.15 |
| GCCUAGCAAUAUUACGCCUC | 0.149 ± 0.18 | 0.175 ± 0.41 |
| GCCUAGCAAUAUUACGCUAA | -1.28 ± 0.11 | 0.00419 ± 0.12 |
| GCCUAGCAAUAUUACGGAGC | -2.44 ± 0.13 | -1.43 ± 0.1 |
| GCCUAGCAAUAUUACGGCAG | -2.72 ± 0.19 | -2.18 ± 0.42 |

| Sequence | self-splicing fitness (ln) (30 °C) | self-splicing fitness (ln) (37 °C) |
| --- | --- | --- |
| GCCUAGCAAUAUUACGGGAC | -2.4 ± 0.13 | -0.0283 ± 0.1 |
| GCCUAGCAAUAUUACGGGUG | -1.02 ± 0.056 | -0.101 ± 0.067 |
| GCCUAGCAAUAUUACGGUAA | -0.151 ± 0.079 | -0.546 ± 0.075 |
| GCCUAGCAAUAUUACGGUGG | -4.34 ± 0.27 | -2.86 ± 0.22 |
| GCCUAGCAAUAUUACGUAAG | -1.83 ± 0.088 | -0.757 ± 0.11 |
| GCCUAGCAAUAUUACGUCAA | -2.16 ± 0.22 | -1.8 ± 0.18 |
| GCCUAGCAAUAUUACGUGCG | -1.6 ± 0.075 | -0.358 ± 0.078 |
| GCCUAGCAAUAUUACGUUGU | -0.142 ± 0.04 | 0.252 ± 0.055 |
| GCGAAGCAAUAUUACGACAU | -0.422 ± 0.012 | 0.0421 ± 0.032 |
| GCGAAGCAAUAUUACGAUAC | -1.99 ± 0.17 | -0.487 ± 0.15 |
| GCGAAGCAAUAUUACGCUUC | -4.53 ± 0.46 | -2.58 ± 0.29 |
| GCGAAGCAAUAUUACGGCCG | -1.71 ± 0.29 | -1.34 ± 0.37 |
| GCGAAGCAAUAUUACGGGAC | -1.66 ± 0.16 | -2.2 ± 0.22 |
| GCGAAGCAAUAUUACGGGUG | -1.77 ± 0.085 | -1.88 ± 0.1 |
| GCGAAGCAAUAUUACGUACA | -1.9 ± 0.19 | -1.29 ± 0.14 |
| GCGAAGCAAUAUUACGUAUU | -3.7 ± 0.15 | -0.392 ± 0.093 |
| GCGAAGCAAUAUUACGUCUG | -1.68 ± 0.088 | -1.81 ± 0.15 |
| GCGAAGCAAUAUUACGUGAC | -1.51 ± 0.28 | -2.05 ± 0.29 |
| GCGAAGCAAUAUUACGUGGU | -3.09 ± 0.17 | -2.92 ± 0.2 |
| GCGCAGCAAUAUUACGACAU | -0.277 ± 0.012 | 0.253 ± 0.032 |
| GCGCAGCAAUAUUACGACGA | 0.345 ± 0.15 | -0.247 ± 0.17 |
| GCGCAGCAAUAUUACGACGC | -2.89 ± 0.33 | -1.81 ± 0.35 |
| GCGCAGCAAUAUUACGAGAA | -2.67 ± 0.21 | -0.894 ± 0.21 |
| GCGCAGCAAUAUUACGAGCG | -2.39 ± 0.15 | -2.26 ± 0.24 |
| GCGCAGCAAUAUUACGAGCU | -3.19 ± 0.28 | -1.74 ± 0.16 |

| Sequence | self-splicing fitness (ln) (30 °C) | self-splicing fitness (ln) (37 °C) |
| --- | --- | --- |
| GCGCAGCAAUAUUACGAUCU | -0.609 ± 0.055 | -0.141 ± 0.067 |
| GCGCAGCAAUAUUACGAUGU | -1.21 ± 0.077 | -0.279 ± 0.099 |
| GCGCAGCAAUAUUACGCAAU | -1.56 ± 0.09 | -0.27 ± 0.1 |
| GCGCAGCAAUAUUACGCACG | – | -1.39 ± 0.3 |
| GCGCAGCAAUAUUACGCACU | -1.97 ± 0.13 | -1.23 ± 0.12 |
| GCGCAGCAAUAUUACGCCUA | -0.46 ± 0.24 | 0.407 ± 0.16 |
| GCGCAGCAAUAUUACGCUCA | -0.576 ± 0.14 | 0.238 ± 0.16 |
| GCGCAGCAAUAUUACGCUUC | -1.97 ± 0.24 | -0.419 ± 0.15 |
| GCGCAGCAAUAUUACGGCAA | -0.734 ± 0.14 | -0.814 ± 0.14 |
| GCGCAGCAAUAUUACGGGUA | -2.4 ± 0.13 | -1.59 ± 0.1 |
| GCGCAGCAAUAUUACGGUUG | -2.53 ± 0.1 | -3.34 ± 0.19 |
| GCGCAGCAAUAUUACGUAAA | 0.442 ± 0.089 | 0.263 ± 0.12 |
| GCGCAGCAAUAUUACGUACA | -1.49 ± 0.084 | -0.256 ± 0.088 |
| GCGCAGCAAUAUUACGUAGG | -0.838 ± 0.061 | -0.551 ± 0.086 |
| GCGCAGCAAUAUUACGUCCC | -1.14 ± 0.3 | 0.234 ± 0.2 |
| GCGCAGCAAUAUUACGUCUA | -0.763 ± 0.07 | -0.321 ± 0.079 |
| GCGCAGCAAUAUUACGUUAG | -4.26 ± 0.2 | -2.26 ± 0.18 |
| GCGGAGCAAUAUUACGAACC | -1.32 ± 0.35 | – |
| GCGGAGCAAUAUUACGAGAU | -2.21 ± 0.27 | -1.94 ± 0.4 |
| GCGGAGCAAUAUUACGAGCG | -1.01 ± 0.17 | 0.152 ± 0.35 |
| GCGGAGCAAUAUUACGAUCA | -2.43 ± 0.41 | -1.56 ± 0.32 |
| GCGGAGCAAUAUUACGAUCG | -0.357 ± 0.25 | -1.12 ± 0.3 |
| GCGGAGCAAUAUUACGAUGG | -1.16 ± 0.26 | -1.02 ± 0.32 |
| GCGGAGCAAUAUUACGAUUC | -1.32 ± 0.12 | -1.09 ± 0.15 |
| GCGGAGCAAUAUUACGCAUC | -4.01 ± 0.27 | -1.81 ± 0.35 |

| Sequence | self-splicing fitness (ln) (30 °C) | self-splicing fitness (ln) (37 °C) |
| --- | --- | --- |
| GCGGAGCAAUAUUACGCCGU | -1.4 ± 0.28 | – |
| GCGGAGCAAUAUUACGCCUC | -3.43 ± 0.38 | -1.06 ± 0.36 |
| GCGGAGCAAUAUUACGCGUC | -3.26 ± 0.18 | -3.2 ± 0.25 |
| GCGGAGCAAUAUUACGCUCG | -2.94 ± 0.43 | – |
| GCGGAGCAAUAUUACGGAGA | -2.07 ± 0.2 | -1.71 ± 0.41 |
| GCGGAGCAAUAUUACGGAUC | -0.472 ± 0.083 | -0.528 ± 0.17 |
| GCGGAGCAAUAUUACGGUAA | -3.29 ± 0.26 | -2.7 ± 0.31 |
| GCGGAGCAAUAUUACGGUAG | -2.77 ± 0.23 | – |
| GCGGAGCAAUAUUACGGUAU | -3.38 ± 0.24 | -2.95 ± 0.26 |
| GCGGAGCAAUAUUACGGUGC | -3.56 ± 0.49 | – |
| GCGGAGCAAUAUUACGGUGU | -3.36 ± 0.23 | -3.11 ± 0.35 |
| GCGGAGCAAUAUUACGUAAG | -3.35 ± 0.33 | -0.951 ± 0.19 |
| GCGGAGCAAUAUUACGUCCA | -2.88 ± 0.33 | -0.822 ± 0.32 |
| GCGGAGCAAUAUUACGUCCG | -0.898 ± 0.32 | -0.455 ± 0.25 |
| GCGGAGCAAUAUUACGUGAU | -2.01 ± 0.47 | -1.42 ± 0.3 |
| GCGGAGCAAUAUUACGUUGA | -2.63 ± 0.32 | -2.31 ± 0.32 |
| GCGUAGCAAUAUUACGAGUA | -1.64 ± 0.16 | -0.623 ± 0.13 |
| GCGUAGCAAUAUUACGAGUG | -1.78 ± 0.15 | -1.19 ± 0.21 |
| GCGUAGCAAUAUUACGAUAC | -1.95 ± 0.12 | -0.893 ± 0.12 |
| GCGUAGCAAUAUUACGCACU | -3.02 ± 0.24 | 0.255 ± 0.2 |
| GCGUAGCAAUAUUACGCUAA | -3.9 ± 0.27 | -2.25 ± 0.21 |
| GCGUAGCAAUAUUACGCUGA | – | -3.19 ± 0.3 |
| GCGUAGCAAUAUUACGCUGU | -3.16 ± 0.28 | – |
